From publication PMC7214410, “A deubiquitylase with an unusually high-affinity ubiquitin-binding domain from the scrub typhus pathogen Orientia tsutsugamushi” (Nature Communications, 2020)
Residue numbers refer to the chain shown, from its start. Names may count otherwise.

B1: OtDUB_(170–264) (the UBD) (domain or fragment)
chain: VNFLSENRMITSAAAALADTLLKNNNRITEGVLVDRIFDNKILSVQEKQQLLNNLLDNHIKENKSLTKESLTRMLASTHFVQQQANVLLNEKFNK
notes: source: E. coli Rosetta DE3, purified (glutathione resin, SEC)
B2: GST-UBD_(170–259) (domain or fragment)
chain: VNFLSENRMITSAAAALADTLLKNNNRITEGVLVDRIFDNKILSVQEKQQLLNNLLDNHIKENKSLTKESLTRMLASTHFVQQQANVLLN
notes: also called GST-tagged UBD; OtDUBUBD; source: E. coli BL21(DE3), purified (Ni-NTA, GSTrap HP)
B3: GST-UBD_(170–259) D204A/D208A (domain or fragment)
chain: B2 chain with D35A, D39A
notes: also called charge-neutralizing mutant; source: E. coli BL21(DE3), purified (Ni-NTA, GSTrap HP)
B4: GST-UBD_(170–259) N222A/D226A (domain or fragment)
chain: B2 chain with N53A, D57A
notes: as for B3
B5: GST-UBD_(170–259) F207D (domain or fragment)
chain: B2 chain with F38D
notes: source: E. coli BL21(DE3), purified (Ni-NTA, GSTrap HP)
B6: OtDUB_(1–259) (domain or fragment)
chain: GMANDQDLSNPEYLYTEDDINQLLKHYLGLDDRISIIQHVALNESLLLKQTLHQVLSDIFSGMQEKAVIPLHTGNNHWVAMAIKKGMNDDIVISYNDPMGVSIDDKVTLINCIKELCPGAKINDLQTVQQTNVYDCGPFVVDNLIKMSQGQPILSTEEAKQQAQNIRQSQVNFLSENRMITSAAAALADTLLKNNNRITEGVLVDRIFDNKILSVQEKQQLLNNLLDNHIKENKSLTKESLTRMLASTHFVQQQANVLLN
notes: also called OTT_1962 DUB domain with VR-1/UBD; DUB-UBD segment; source: E. coli BL21(DE3), purified (Ni-NTA, TEV cleavage, HiTrap Q, Superdex 75)
B7: OtDUB_(1–177)-C135A (domain or fragment)
chain: MANDQDLSNPEYLYTEDDINQLLKHYLGLDDRISIIQHVALNESLLLKQTLHQVLSDIFSGMQEKAVIPLHTGNNHWVAMAIKKGMNDDIVISYNDPMGVSIDDKVTLINCIKELCPGAKINDLQTVQQTNVYDAGPFVVDNLIKMSQGQPILSTEEAKQQAQNIRQSQVNFLSENR

How the values were obtained:
Details in all cases: both partners purified
[1] = target: T1, untagged ubiquitin (UniProt P0CG48 1-76); test: ITC
T1 construct: also called mono-ubiquitin; Mono Ub; source: E. coli, purified (heated to 85 °C, SP-Sepharose, Superdex 75)

[2] = target: T2, 6His-ubiquitin (human, UniProt P0CG48 1-76); test: pull-down; GST-tagged UBD (25 µM) mixed with His-tagged ubiquitin (75 µM) in 25 mM Tris-HCl pH 8.0, 100 mM NaCl, 0.1 mM TCEP; glutathione sepharose 4B, 1 h at 2 °C; eluted with glutathione, Coomassie
T2 construct: also called His-tagged human ubiquitin; His-tagged ubiquitin; source: E. coli BL21(DE3), purified (Ni-NTA)

[3] = target: T3, human ubiquitin (His tag cleaved, for the co-crystal) (human, UniProt P0CG48 1-76); test: crystal structure
T3 construct: also called free ubiquitin; UbS1; source: E. coli BL21(DE3), purified (Ni-NTA, TEV cleavage, HiTrap S, Superdex 75)

[4] = target: T1, untagged ubiquitin; test: ITC; remark: listed apart in the source

Binder	binding result [2]	also measured
B1	–	Kd [1]: 0.0053 ± 0.0039 µM
B2	binds	–
B3	binds	–
B4	binds	–
B5	binds	–
B6	–	binding result [3]: binds
B7	–	Kd [4]: 6.3 ± 0.2 µM
